Assay results as given in article PMC314469, “Protein Interaction Networks by Proteome Peptide Scanning” (PLoS Biology, 2004).

T1: Abp1 SH3 (ABP1_YEAST), P15891
T1 chain: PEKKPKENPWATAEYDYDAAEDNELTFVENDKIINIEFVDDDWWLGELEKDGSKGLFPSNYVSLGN


Target: T1, Abp1 SH3 (ABP1_YEAST), P15891
Experiment: SPOT array

Row | Binder | normalised SPOT signal, Boehringer light units (BLU); mean over the file's lines of this peptide
1 | ANISTSDPDFYKP [YDR406W 122-134] | 99.2
2 | ASLFPRDPKRLRP [YLL018C 545-557] | 1990
3 | AKDPIRTPDAKKP [YLR226W 381-393] | 328
4 | ALPLPAVFSAPIRP [YBR031W 19-32] | 49.7
5 | YYRLDALPKDGKP [YGL245W 693-705] | 219
6 | AISIFDMNLSPIKP [YKL108W 91-104] | 40.2
7 | ARTGYETPVKVRP [YCL055W 274-286] | 342
8 | AIIDRIPPPTGRP [YLR289W 219-231] | 132
9 | AKSTRSSPQKAKP [YBR203W 447-459] | 88.6
10 | AIKSIYSPSDKRP [YBR229C 581-593] | 351
11 | AIAYDNAPYSPKP [YGL008C 735-747] | 173
12 | ASNFVQRPVISKP [YDL145C 797-809] | 2410
13 | ALNDSMFFPYPFKP [YGL131C 433-446] | 138
14 | AAYNAKKAAKPAKP [YAL003W 104-117] | 109
15 | AMIAHLSPHNARP [YJR124C 130-142] | 464
16 | AIDPPRRPHNVKP [YCL048W 27-39] | 2120
17 | ANVQNVIPDDSKP [YDR331W 298-310] | 35.4
18 | AGGGIWGPMEKKP [YHR093W 43-55] | 120
19 | AGPKPSISLVPDKP [YLR189C 14-27] | 233
20 | AAAAPPLPSDVRP [YDR159W 245-257] | 60.6

Row | Binder | normalised SPOT signal, Boehringer light units (BLU); mean over the file's lines of this peptide
21 | ALKQKKIPPPFKP [YHR205W 678-690] | 5260
22 | APKKWKAPKGPKP [YGL099W 6-18] | 332
23 | AIRKENLPNLEKP [YDR150W 1608-1620] | 72.3
24 | AMLEEQVKSNPNRP [YGR234W 289-302] | 0
25 | AQVVLIPAGVPRKP [YDL078C 69-82] | 53.3
26 | ASVEQFDLKMPSKP [YLR055C 485-498] | 112
27 | YYNDLSYYLRPIKP [Q0115 375-388] | 128
28 | ALDGSSKPFKVKP [YLR392C 95-107] | 223
29 | AEGNVKPWNPPQKP [YLR295C 56-69] | 160
30 | ASLRAGLPTVIKP [YLR189C 1077-1089] | 78.3
31 | YYRELLSFLSPGKP [YML005W 156-169] | 59.8
32 | ALWEVGSGGDPTKP [YEL056W 186-199] | 80.3
33 | AQLLNPNRRAPRRP [YJL128C 177-190] | 364
34 | ANSVPIMPTLPPRP [YGL060W 533-546] | 112
35 | ALPTGAPPTTPSRP [YGR170W 87-100] | 92.1
36 | AAPNSNVPTNERP [YGL122C 485-497] | 146
37 | AAADSVSPDSQRP [YLL027W 53-65] | 182
38 | APEIINDLNHPEKP [YEL070W 157-170] | 86
39 | AIIYHHKAGDPFKP [YGR276C 328-341] | 155
40 | ADQRKLFPNWIKP [YHR165C 1003-1015] | 456

The remaining lines, values ahead:

Row | normalised SPOT signal, Boehringer light units (BLU); mean over the file's lines of this peptide | Binder
41 | 45.6 | AAAPDVKPHDTKP [YPR125W 432-444]
42 | 87.3 | AKKEFDEKLPPKKP [YMR072W 106-119]
43 | 27.3 | AGDDEPGADEPARP [YOL073C 298-311]
44 | 144 | YYSASPLPASKRP [YMR108W 43-55]
45 | 211 | YYVSKRVPVKNRP [YNL023C 118-130]
46 | 94.4 | AHLSAADPDFYKP [YOR153W 112-124]
47 | 99.8 | AQKDSSVVSEPKKP [YOR098C 642-655]
48 | 102 | ALFGFRDPNGIRP [YMR300C 181-193]
49 | 122 | ASKLVEQHMAPPKP [YPL085W 1841-1854]
50 | 190 | APIPESPANSPTRP [YMR115W 51-64]
51 | 103 | APLNLDNPSSERP [YPL012W 496-508]
52 | 199 | ASIVVIPAGVPRKP [YOL126C 141-154]
53 | 86.6 | AAELGNNALPPTKP [YNR046W 63-76]
54 | 91.9 | ALKDFHSTLDPSKP [YOR251C 241-254]
55 | 82.3 | YYVLNPNNKQPIKP [YNL076W 85-98]
56 | 243 | AAVPTKTIASPQRP [YOR227W 52-65]
57 | 61.8 | ADDSFIFPDEDKP [YNL103W 152-164]
58 | 8310 | APIIGSPRHAPSRP [YOL138C 1118-1131]
